Test results taken from US20220289837A1, “Cystic Fibrosis Transmembrane Conductance Regulator Stabilizing Agents” (VIB VZW, priority 2019, published 2022).

B1: T8: nanobody, SEQ ID NO:7, binds epitope 2 including F508, stabilizes WT CFTR but not F508del (protein)
VHH: QVQLQESGGGLVQPGGSLRLSCAASGSTSSINAMGWYRQAPGKQREPVAISSSGGDTRYAEPVKGRFTISRDNAQNKVYLQMNSLKPEDTAVYYCWLNWGRTSVNSWGQGTQVTVSS
modifications: T8 Nanobody amino acid sequence
B2: D12: NBD1-specific CFTR-stabilizing nanobody, SEQ ID NO:2, binds epitope 1 (protein)
VHH: QVQLQESGGGLVQAGSSLRLACAATGSIRSINNMGWYRQAPGKQRGMVAIITRVGNTDYADSVKGRFTISRDNAKNTVYLQMNSLKPEDTATYYCHAEITEQSRPFYLTDDYWGQGTQVTVSS
modifications: D12 Nanobody amino acid sequence
B3: T2a: NBD1-specific CFTR-stabilizing nanobody, SEQ ID NO:3, binds epitope 1 (protein)
VHH: QVQLQESGGGLVQAGGSLRLSCAASGSIFRIDAMGWYRQAPGKQRELVAHSTSGGSTDYADSVKGRFTISRDNAKNTVYLQMNSLKPEDTAVYYCNADVRTRWYASNNYWGQGTQVTVSS
modifications: T2a Nanobody amino acid sequence
B4: T27: NBD1-specific CFTR-stabilizing nanobody, SEQ ID NO:4, binds epitope 1 (protein)
VHH: QVQLQESGGGLEQPGGSLRLSCATSGVIFGINAMGWYRQAPGKQRELVATFTSGGSTNYADFVEGRFTISRDNAKNTVYLQMNGLRPEDTAVYYCHATVVVSRYGLTYDYWGQGTQVTVSS
modifications: T27 Nanobody amino acid sequence
B5: G3a: non-stabilizing nanobody, SEQ ID NO:50, recognizes the structurally diverse region of NBD1 (protein)
VHH: QVQLQESGGGLVQAGGSLRLSCTASGRAFSWYVMGWFRQAPGKEREFVATVSGNGSRRDYADSVKGRFTISRDNAKNTVYLQMNSLKPEDTAVYYCAASSTYYYTDPEKYDYWGQGTQVTVSS
modifications: G3a Nanobody

Experiments:
2PT-F508del-CFTR = target: T1, 2PT-F508del-CFTR (Homo sapiens, UniProt P13569, A534P/DEL508-508/I539T/S492P); assay: Flow cytometry on BHK-21 cells expressing 2PT-F508del-CFTR; format: cell-based
T1 construct: expressed in transfected cells
Experimental: (§1) Parental BHK-21 cells (ATCC; CCL-10) and cells stably overexpressing human wt-CFTR^[43,44,47] or 2PT-F508del-CFTR, as described above, were permeabilized with 0.01% n-Dodecyl-β-D-Maltopyranoside β-DDM—Inalco) at least for 2 h on ice. In the meantime, cells were incubated with 50 μg/ml nanobodies and DRAQ7 (0.3 μM—Biostatus) to monitor the permeabilization state. Nanobody binding was detected by using His-tag specific antibody (Invitrogen, catalogue number MA1-135, 1 μg/ml) or Myc-tag specific antibody (Invitrogen, catalogue number 13-2500, 2 μg/ml) and then anti-mouse-Alexa Fluor 488 (Invitrogen, catalogue number A11001, 1.3 μg/ml) at least for 30 min on ice. Cells were washed one time between each step by centrifugation (200×g for 5 min at 4° C.). All incubations (100 μl) and washes (1.5 ml) were performed in PBS with 6% fetal bovine serum (FBS) and 0.01%13-DDM on ice. Cells fluorescence was measured with Gallios Flow Cytometer (Beckman Coulter). Data were analyzed with Kaluza software.

wt-CFTR [1] = target: T2, wt-CFTR (Homo sapiens, UniProt P13569); assay: CFTR pull-down from solubilized BHK-21 cells with immunoblot; format: binding; design: expressed in transfected cells; settings: immunoblot with mAb 596
Experimental: Human wt-CFTR was extracted from BHK-21 cells pellet by solubilization with 1% DMNG in PBS with proteases inhibitors for 1 h at 4° C. The cells debris were removed by centrifugation (16,000×g for 30 min at 4° C.). Supernatant was diluted 10 times in PBS with proteases inhibitors plus 10 mM imidazole and incubated at least for 30 min on HisPur Ni-NTA Resin (Thermo Scientific) pre-loaded with nanobodies. Resin was washed with 40 column volumes of PBS with 300 mM NaCl. Nanobodies were eluted with 200 mM imidazole in PBS. Presence of CFTR in each sample was detected by SDS-PAGE and immuno-blotting.
Cell extracts were separated by SDS-PAGE on 7.5% polyacrylamide gel and transferred to nitrocellulose membrane (Bio-Rad) for immunodetection. After blocking for 1 h with 5% bovine serum albumin (BSA) in Tris-buffered saline added 0.05% Tween-20 (TBST), CFTR was detected using monoclonal antibody mAb 596, IgG2b (CFTR Antibody Distribution Program, dilution 1:46) for 1 h in blocking buffer. Blot was washed 3 times 5 min and incubated with anti-mouse-HRP antibody (Millipore, catalogue number: AP308P, 0.2 μg/ml) for 1 h in TBST. Membrane was washed 3 times for 5 min. CFTR was visualized by chemiluminescence using Luminata Forte Western HRP Substrate (Millipore) and detected with ImageQuant 400 (GE Healthcare).

parental BHK-21 cells = assay: Flow cytometry on parental BHK-21 cells; format: cell-based, hamster; settings: compared to negative control nanobody
Experimental: as §1

F508del-2PT-NBD1 = target: T3, F508del-2PT-NBD1 (Homo sapiens, UniProt P13569, A534P/DEL508-508/I539T/S492P/V470M); assay: Thermal shift assay (DSF) of F508del-2PT-NBD1; format: binding
T3 construct: His6-SUMO (N, cleaved yes); made in house; host or cells: Escherichia coli BL21(DE3) pLysS
Experimental: Solutions of either 2PT-NBD1 or F508del-2PT-NBD1 (10 μM final concentration), nanobodies (30 μM final concentration) and 2.5× or 5× concentrated SYPRO Orange Protein Stain (Molecular Probes) diluted in 20 mM HEPES pH 7.5, 150 mM NaCl, 3 mM MgCl2, 2 mM ATP and 10% (w/v) glycerol, 10% (w/v) ethylene glycol, were added to the wells of a 96-well PCR plates type BR white (VWR) in a final volume of 25 μl. Plates were sealed with EasySeal sheets (Molecular dimensions) and spun 2 min at 900× g. SYPRO orange fluorescence was monitored in CFX96 Touch Real-Time PCR Detection System (Bio-Rad) using FRET scan mode from 10 to 80° C. in increments of either 1° C. or 0.2° C.

wt-CFTR [2] = target: T2, wt-CFTR; assay: ATPase activity of wt-CFTR; format: biochemical; design: His10-SUMO* (N); FLAG; EGFP (C); made in house; host or cells: HEK 293 cell line D165; settings: saturating concentration of nanobody
Experimental: To determine effect of nanobodies on functional stability, aliquots of purified wt-CFTR (25 nM) were preincubated 1 h on ice with 1 μM nanobody (or 15 μM, in the case of G3a). Substrate α-[32P]-ATP (2 μl) was then added for measurement of ATPase activity as previously described^[48]. Then, nanobody protection against thermal denaturation was determined after a 30 min thermal challenge of the protein complexes followed by an assay of residual ATPase.

F508del-CFTR = target: T4, F508del-CFTR (Homo sapiens, UniProt P13569, DEL508-508); assay: HS-YFP quenching assay; format: cell-based; settings: HEK293T F508del-CFTR + HS-YFP, 10 μM forskolin and 3 μM VX770, 3 μM VX809 or DMSO 24 h
T4 construct: expressed in transfected cells
Experimental: To study CFTR function in cells, we used a HS-YFP quenching assay where changes in fluorescence of halide sensitive YFP (HS-YFP) reflect halide entrance through CFTR. HEK293T cells stably expressing F508del-CFTR (or WT CFTR as a control) and a modified YFP were transiently transfected with pcDNA3-based plasmid coding either for a stabilizing nanobody (T2a, D12 or T27) or a control nanobody (not binding F508del-CFTR) and incubated with 3 μM VX809 corrector or 0.06% DMSO for 24 h. Before addition of iodide, cells are stimulated by 10 μM forskolin and 3 μM VX770 potentiator for 20 mins and YFP fluorescence signal is measured (excitation 485, emission 535 nm) over a period of 4 seconds.
The assay was performed as described previously in (Ensinck, et al. 2020) with minor modifications. Briefly, cells stably expressing wt- or F508del-CFTR and a halide sensitive yellow fluorescent protein (HS-YFP) (Galietta, et al. 2001) were transfected with plasmids encoding the nanobodies using PEI and immediately plated into black, clear-bottomed 96-well plates coated with Poly-D-Lysine. After overnight incubation VX-809 (3 μM) or DMSO was added for 24 h. Next, the cells were washed with DPBS and potentiator VX-770 (3 μM) and/or CFTR activator forskolin (#F3917, Sigma-Aldrich, 10 μM) was added for 20 min. Fluorescence was measured after which a I^− buffer (137 mM Nal, 2.7 mM KI, 1.7 mM KH2PO4, 10.1 mM Na2HPO4, 5 mM D-glucose) was injected into the well and fluorescence monitored for another 4 s. YFP quenching was determined at the end of the interval as F/F0, and CFTR function as 1-(F/F0).

T1 sequence (P13569 with tags, fused parts or gaps S492P/DEL508-508/A534P/I539T): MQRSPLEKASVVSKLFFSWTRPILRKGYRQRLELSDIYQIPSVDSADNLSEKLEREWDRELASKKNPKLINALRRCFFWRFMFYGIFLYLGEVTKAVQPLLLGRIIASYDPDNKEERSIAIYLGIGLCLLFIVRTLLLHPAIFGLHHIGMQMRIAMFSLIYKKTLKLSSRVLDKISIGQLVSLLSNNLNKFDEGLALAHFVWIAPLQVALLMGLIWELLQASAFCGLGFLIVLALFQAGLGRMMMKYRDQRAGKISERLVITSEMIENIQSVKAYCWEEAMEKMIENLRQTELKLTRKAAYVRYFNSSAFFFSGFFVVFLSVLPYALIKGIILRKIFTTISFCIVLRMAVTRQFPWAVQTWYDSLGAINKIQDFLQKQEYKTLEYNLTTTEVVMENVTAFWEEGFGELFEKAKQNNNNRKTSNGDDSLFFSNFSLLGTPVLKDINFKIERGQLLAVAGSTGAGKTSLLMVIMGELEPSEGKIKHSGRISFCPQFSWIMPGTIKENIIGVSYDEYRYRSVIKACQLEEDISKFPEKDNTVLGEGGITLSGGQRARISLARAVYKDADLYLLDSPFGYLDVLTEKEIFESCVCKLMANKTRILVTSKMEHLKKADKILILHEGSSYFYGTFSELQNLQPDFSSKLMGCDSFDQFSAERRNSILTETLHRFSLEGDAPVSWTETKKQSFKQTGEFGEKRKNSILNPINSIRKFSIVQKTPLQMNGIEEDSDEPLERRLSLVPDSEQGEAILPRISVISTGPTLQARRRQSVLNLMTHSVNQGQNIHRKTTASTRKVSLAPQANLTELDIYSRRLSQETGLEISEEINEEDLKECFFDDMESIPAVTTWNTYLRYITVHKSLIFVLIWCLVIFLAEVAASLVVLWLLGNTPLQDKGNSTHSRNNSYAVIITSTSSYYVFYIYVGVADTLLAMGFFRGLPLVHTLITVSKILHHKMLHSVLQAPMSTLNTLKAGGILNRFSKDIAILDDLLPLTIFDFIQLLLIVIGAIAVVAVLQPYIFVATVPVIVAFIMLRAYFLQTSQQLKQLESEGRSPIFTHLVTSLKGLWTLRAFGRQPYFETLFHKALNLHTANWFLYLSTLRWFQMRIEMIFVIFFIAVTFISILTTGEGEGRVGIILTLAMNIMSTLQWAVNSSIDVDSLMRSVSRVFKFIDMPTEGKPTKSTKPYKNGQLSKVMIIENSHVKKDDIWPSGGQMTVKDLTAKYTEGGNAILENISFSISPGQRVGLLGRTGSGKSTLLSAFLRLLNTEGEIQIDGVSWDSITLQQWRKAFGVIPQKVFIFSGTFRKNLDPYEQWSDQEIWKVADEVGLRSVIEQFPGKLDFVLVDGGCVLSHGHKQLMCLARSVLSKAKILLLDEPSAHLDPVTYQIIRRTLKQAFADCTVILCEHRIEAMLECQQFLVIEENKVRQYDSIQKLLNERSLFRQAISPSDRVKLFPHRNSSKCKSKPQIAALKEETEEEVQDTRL
T2 sequence (P13569 whole entry): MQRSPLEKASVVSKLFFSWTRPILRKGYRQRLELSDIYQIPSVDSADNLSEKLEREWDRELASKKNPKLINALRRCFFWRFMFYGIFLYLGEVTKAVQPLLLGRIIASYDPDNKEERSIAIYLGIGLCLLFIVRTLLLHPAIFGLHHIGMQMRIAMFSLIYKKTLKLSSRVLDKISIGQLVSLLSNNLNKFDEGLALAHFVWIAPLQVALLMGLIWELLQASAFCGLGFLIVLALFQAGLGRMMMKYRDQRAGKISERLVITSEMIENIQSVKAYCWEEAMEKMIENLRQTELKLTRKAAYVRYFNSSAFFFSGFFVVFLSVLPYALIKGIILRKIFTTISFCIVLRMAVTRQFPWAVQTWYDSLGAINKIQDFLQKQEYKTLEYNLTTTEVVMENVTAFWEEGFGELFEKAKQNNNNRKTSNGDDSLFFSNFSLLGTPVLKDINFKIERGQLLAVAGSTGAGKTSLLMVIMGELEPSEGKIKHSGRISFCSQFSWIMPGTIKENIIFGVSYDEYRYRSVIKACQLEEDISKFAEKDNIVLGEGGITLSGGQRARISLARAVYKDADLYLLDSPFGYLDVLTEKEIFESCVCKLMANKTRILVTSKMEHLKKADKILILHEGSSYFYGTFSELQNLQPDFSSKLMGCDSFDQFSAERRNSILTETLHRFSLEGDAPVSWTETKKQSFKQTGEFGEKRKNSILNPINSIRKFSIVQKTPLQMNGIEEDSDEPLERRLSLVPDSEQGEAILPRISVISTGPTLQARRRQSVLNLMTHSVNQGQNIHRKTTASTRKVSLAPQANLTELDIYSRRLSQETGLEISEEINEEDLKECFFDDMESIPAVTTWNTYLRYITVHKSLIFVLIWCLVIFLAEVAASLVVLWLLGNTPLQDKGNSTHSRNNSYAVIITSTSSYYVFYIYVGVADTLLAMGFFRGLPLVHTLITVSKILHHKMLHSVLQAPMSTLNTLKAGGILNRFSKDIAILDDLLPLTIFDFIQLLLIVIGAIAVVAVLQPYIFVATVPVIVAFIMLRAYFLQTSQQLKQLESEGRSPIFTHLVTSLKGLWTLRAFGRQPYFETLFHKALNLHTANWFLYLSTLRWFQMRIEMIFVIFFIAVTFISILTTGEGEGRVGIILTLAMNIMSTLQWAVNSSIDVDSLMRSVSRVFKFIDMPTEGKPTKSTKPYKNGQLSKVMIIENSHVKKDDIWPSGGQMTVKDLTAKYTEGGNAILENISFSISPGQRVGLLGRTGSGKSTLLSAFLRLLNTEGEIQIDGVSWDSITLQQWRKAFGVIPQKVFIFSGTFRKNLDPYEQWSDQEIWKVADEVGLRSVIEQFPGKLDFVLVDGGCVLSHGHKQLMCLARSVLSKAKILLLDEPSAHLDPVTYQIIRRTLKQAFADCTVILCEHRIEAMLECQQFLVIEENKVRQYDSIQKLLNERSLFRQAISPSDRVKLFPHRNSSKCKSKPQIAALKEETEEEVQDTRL
T3 sequence (P13569 with tags, fused parts or gaps V470M/S492P/DEL508-508/A534P/I539T limits assumed): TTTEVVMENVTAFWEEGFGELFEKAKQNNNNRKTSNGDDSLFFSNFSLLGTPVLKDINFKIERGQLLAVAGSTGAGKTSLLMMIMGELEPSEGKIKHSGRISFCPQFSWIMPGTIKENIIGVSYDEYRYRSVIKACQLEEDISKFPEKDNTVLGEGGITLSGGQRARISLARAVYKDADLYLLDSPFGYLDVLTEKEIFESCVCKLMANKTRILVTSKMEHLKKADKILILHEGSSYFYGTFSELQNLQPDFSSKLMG
T4 sequence (P13569 with tags, fused parts or gaps DEL508-508): as the sequence (P13569 with tags, fused parts or gaps S492P/DEL508-508/A534P/I539T) above, with P492S, P533A, T538I counted along it

Molecule | binding to 2PT-F508del expressing cells (2PT-F508del-CFTR) | pull-down of cellular CFTR, electrophoresis pattern (mature band C) (wt-CFTR [1]) | labelling of parental BHK-21 cells (parental BHK-21 cells) | stabilization of F508del-2PT-NBD1 (F508del-2PT-NBD1) | ATPase activity (wt-CFTR [2]) | quenching of YFP (CFTR function) (F508del-CFTR)
B1 | not able to bind | identical electrophoresis pattern as observed in whole cell lysate | no difference in labelling | did not stabilize | 60 % of PKA-phosphorylated CFTR | –
B2 | – | also observed | no difference in labelling | to the same extent as 2PT-NBD1 | 50 % of PKA-phosphorylated CFTR | quenching of YFP
B3 | bind efficiently | identical electrophoresis pattern as observed in whole cell lysate | no difference in labelling | to the same extent as 2PT-NBD1 | 50 % of PKA-phosphorylated CFTR | quenching of YFP
B4 | – | also observed | no difference in labelling | to the same extent as 2PT-NBD1 | 30 % of PKA-phosphorylated CFTR | quenching of YFP
B5 | bind efficiently | identical electrophoresis pattern as observed in whole cell lysate | no difference in labelling | – | did not affect | –
